Measurements taken from patent publication US20230129812A1, “COMPOSITIONS AND METHODS FOR TREATING PULMONARY HYPERTENSION” (Acceleron Pharma Inc., priority 2020, published 2023).

Columns and labels:
GDF11 [1] = target: T1, GDF11 (Homo sapiens, UniProt O95390); assay: Biacore ligand binding profile, ALK4-Fc:ActRIIB-Fc heterodimer vs homodimers, anti-Fc capture (Example 13, Table 13); settings: ligand GDF11, Table 13
T1 sequence (O95390 299-407): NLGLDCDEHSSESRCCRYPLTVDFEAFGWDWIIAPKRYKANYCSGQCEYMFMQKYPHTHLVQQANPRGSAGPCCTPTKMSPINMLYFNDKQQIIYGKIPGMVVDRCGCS
Method: (§1) A Biacore™-based binding assay was used to compare ligand binding selectivity of the ALK4-Fc:ActRIIB-Fc heterodimeric complex described above with that of ActRIIB-Fc and ALK4-Fc homodimer complexes. The ALK4-Fc:ActRIeB-Fc heterodimer, […], and ALK4-Fc homodimer were independently captured onto the system using an anti-Fc antibody. Ligands were injected and allowed to flow over the captured receptor protein. Results are summarized in Table 13 below, in which ligand off-rates (kd) most indicative of effective polypeptides are denoted in bold.

GDF8 [2] = target: T2, GDF8 (Homo sapiens, UniProt O14793); assay: as above; settings: ligand GDF8, Table 13
T2 sequence (O14793 267-375): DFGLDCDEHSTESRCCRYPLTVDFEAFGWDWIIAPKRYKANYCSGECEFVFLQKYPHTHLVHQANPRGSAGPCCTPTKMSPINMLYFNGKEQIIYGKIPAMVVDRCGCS
Method: as §1

activin A [3] = target: T3, activin A (Homo sapiens, UniProt P08476); assay: as above; settings: ligand Activin A, Table 13
T3 sequence (P08476 311-426): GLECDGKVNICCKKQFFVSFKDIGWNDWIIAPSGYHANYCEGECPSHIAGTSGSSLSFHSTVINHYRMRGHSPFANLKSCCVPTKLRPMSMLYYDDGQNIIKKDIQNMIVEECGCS
Method: as §1

activin B [4] = target: T4, activin B (Homo sapiens, UniProt P09529); assay: as above; settings: ligand Activin B, Table 13
T4 sequence (P09529 293-407): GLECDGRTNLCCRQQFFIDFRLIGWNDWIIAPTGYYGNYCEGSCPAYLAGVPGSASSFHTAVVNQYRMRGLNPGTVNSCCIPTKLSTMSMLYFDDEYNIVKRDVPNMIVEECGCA
Method: as §1

BMP10 = target: T5, BMP10 (Homo sapiens, UniProt O95393); assay: Biacore ligand binding profile, ActRIIA-Fc:ALK4-Fc heterodimer vs homodimers, anti-Fc capture (Example 17, Table 14); settings: ligand BMP10, Table 14
T5 sequence (O95393 317-424): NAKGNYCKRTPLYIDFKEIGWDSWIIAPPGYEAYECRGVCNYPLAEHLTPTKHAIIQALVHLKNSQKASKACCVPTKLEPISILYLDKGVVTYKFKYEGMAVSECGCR
Method: (§2) A Biacore™-based binding assay was used to compare ligand binding selectivity of the ActRIIA-Fc:ALK4-Fc heterodimeric complex described above with that of ActRIIA-Fc and ALK4-Fc homodimeric complexes. The ActRIIA-Fc:ALK4-Fc heterodimer, ActRIIA-Fc homodimer, and ALK4-Fc homodimer were independently captured onto the system using an anti-Fc antibody. Ligands were injected and allowed to flow over the captured receptor protein. Results are summarized in Table 14 below, in which ligand off-rates (kd) most indicative of effective ligand traps are denoted in bold.

BMP6 = target: T6, BMP6 (Homo sapiens, UniProt P22004); assay: as above; settings: ligand BMP6, Table 14
T6 sequence (P22004 375-513): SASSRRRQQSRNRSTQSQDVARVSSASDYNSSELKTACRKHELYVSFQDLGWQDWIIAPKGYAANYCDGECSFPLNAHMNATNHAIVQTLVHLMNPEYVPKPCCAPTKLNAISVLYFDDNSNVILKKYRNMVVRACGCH
Method: as §2

BMP7 = target: T7, BMP7 (Homo sapiens, UniProt P18075); assay: as above; settings: ligand BMP7, Table 14
T7 sequence (P18075 293-431): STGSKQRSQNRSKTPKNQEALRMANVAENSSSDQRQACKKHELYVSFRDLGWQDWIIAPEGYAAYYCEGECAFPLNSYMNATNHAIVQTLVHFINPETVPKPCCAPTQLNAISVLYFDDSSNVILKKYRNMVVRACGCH
Method: as §2

GDF11 [5] = target: T1, GDF11; assay: as above; settings: ligand GDF11, Table 14
Method: as §2

GDF8 [6] = target: T2, GDF8; assay: as above; settings: ligand GDF8, Table 14
Method: as §2

activin A [7] = target: T3, activin A; assay: as above; settings: ligand Activin A, Table 14
Method: as §2

activin AB = target: T8, activin AB (Homo sapiens, UniProt P08476+P09529); assay: as above; settings: ligand Activin AB, Table 14
T8 sequence (P08476 311-426): T3 sequence (P08476 311-426)
T8 sequence (P09529 293-407): T4 sequence (P09529 293-407)
Method: as §2

activin AC = target: T9, activin AC (Homo sapiens, UniProt P08476+P55103); assay: as above; settings: ligand Activin AC, Table 14
T9 sequence (P08476 311-426): T3 sequence (P08476 311-426)
T9 sequence (P55103 237-352): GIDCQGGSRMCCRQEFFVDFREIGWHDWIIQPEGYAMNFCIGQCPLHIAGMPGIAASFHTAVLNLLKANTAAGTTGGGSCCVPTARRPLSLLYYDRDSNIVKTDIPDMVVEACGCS
Method: as §2

activin B [8] = target: T4, activin B; assay: as above; settings: ligand Activin B, Table 14
Method: as §2

Kd (GDF11 [1]): 0.27 nM
ka (GDF11 [1]): 5e+06 M⁻¹ s⁻¹
kd (GDF11 [1]): 0.0048 s⁻¹
Kd (GDF8 [2]): 15 nM
ka (GDF8 [2]): 130000 M⁻¹ s⁻¹
kd (GDF8 [2]): 0.0019 s⁻¹
ka (activin A [3]): 580000 M⁻¹ s⁻¹
kd (activin A [3]): 0.012 s⁻¹
KD (activin B [4]): No binding
KD (BMP10): No binding
KD (BMP6): No binding
KD (BMP7): No binding
ka (GDF11 [5]): 5e+06 M⁻¹ s⁻¹
kd (GDF11 [5]): 0.0048 s⁻¹
Kd (GDF8 [6]): 15 nM
ka (GDF8 [6]): 130000 M⁻¹ s⁻¹
kd (GDF8 [6]): 0.0019 s⁻¹
ka (activin A [7]): 580000 M⁻¹ s⁻¹
kd (activin A [7]): 0.012 s⁻¹
ka (activin AB): 1.8e+06 M⁻¹ s⁻¹
kd (activin AB): 0.0036 s⁻¹
KD (activin AC): No binding
KD (activin B [8]): No binding
B1: ALK4-Fc homodimer: ALK4-Fc homodimer complex used as comparator in Examples 13 and 17 (protein)
chain: SGPRGVQALLCACTSCLQANYTCETDGACMVSIFNLDGMEHHVRTCIPKVELVPAGKPFYCLSSEDLRNTHCCYTDYCNRIDLRVPSGHLKEPEHPSMWGPVE
modifications: left off: a dimerising Fc or GST
